Results as given in patent US20210139548A1 (published 2021).
*1 amine or outer side, *2 acyl side, *3 side chain or, on linkers, in order; H or OH if unused. Side-chain parts run from the residue outwards. The star is where a group is joined. C18 diacid = O=C(O)CCCCCCCCCCCCCCCCC(=O)*; γGlu = O=C(O)[C@H](CCC(=O)[*:2])N[*:1]; Isovaleryl = CC(C)CC(=O)*; AEEA = NCCOCCOCC(=O)O

T1: human neuropeptide Y2 receptor (human, UniProt P49146 1-381)
T1 sequence (looked up): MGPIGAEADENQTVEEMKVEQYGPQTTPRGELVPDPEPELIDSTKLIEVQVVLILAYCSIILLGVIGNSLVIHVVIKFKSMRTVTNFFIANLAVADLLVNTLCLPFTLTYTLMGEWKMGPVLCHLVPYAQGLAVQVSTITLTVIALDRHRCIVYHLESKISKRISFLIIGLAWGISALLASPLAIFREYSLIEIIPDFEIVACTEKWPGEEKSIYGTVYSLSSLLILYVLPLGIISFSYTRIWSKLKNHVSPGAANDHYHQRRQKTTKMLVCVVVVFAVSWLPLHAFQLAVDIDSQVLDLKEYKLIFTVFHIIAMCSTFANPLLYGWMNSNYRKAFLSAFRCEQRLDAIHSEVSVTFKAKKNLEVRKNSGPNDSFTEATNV

T2: human NPY1 receptor (human, UniProt P25929 1-384)
T2 sequence (looked up): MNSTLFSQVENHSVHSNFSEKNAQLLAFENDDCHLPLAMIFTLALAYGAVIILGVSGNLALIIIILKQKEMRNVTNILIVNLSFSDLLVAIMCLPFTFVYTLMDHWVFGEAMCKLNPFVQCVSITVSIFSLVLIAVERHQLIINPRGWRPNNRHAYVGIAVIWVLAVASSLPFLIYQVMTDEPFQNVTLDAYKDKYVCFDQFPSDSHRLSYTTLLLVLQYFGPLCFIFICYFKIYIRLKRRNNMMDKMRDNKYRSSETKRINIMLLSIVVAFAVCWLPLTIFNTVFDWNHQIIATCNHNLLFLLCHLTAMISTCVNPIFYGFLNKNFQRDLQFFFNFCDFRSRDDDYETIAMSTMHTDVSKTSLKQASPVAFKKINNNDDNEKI

T3: human NPY5 receptor (human, UniProt Q15761 1-445)
T3 sequence (looked up): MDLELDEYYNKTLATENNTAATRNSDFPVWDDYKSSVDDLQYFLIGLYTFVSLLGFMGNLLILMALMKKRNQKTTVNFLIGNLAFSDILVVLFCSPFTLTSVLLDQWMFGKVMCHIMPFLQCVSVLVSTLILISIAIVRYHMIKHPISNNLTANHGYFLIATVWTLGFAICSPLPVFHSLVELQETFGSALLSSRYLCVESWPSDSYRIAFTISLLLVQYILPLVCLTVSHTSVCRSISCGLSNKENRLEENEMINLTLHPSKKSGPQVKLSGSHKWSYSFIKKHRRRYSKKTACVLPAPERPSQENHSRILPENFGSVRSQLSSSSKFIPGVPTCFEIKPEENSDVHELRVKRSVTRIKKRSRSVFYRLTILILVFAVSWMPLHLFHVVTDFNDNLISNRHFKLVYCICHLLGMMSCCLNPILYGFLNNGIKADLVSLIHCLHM

B1: Compound 11 (peptide)
peptide: Isovaleryl-APEK([AEEA-AEEA-γGlu-C18 diacid])PEEDASPEEIQQYYVSLRHYYNWLTRQRY-NH2
SMILES: CC[C@H](C)[C@H](NC(=O)[C@H](CCC(=O)O)NC(=O)[C@H](CCC(=O)O)NC(=O)[C@@H]1CCCN1C(=O)[C@H](CO)NC(=O)[C@H](C)NC(=O)[C@H](CC(=O)O)NC(=O)[C@H](CCC(=O)O)NC(=O)[C@H](CCC(=O)O)NC(=O)[C@@H]1CCCN1C(=O)[C@H](CCCCNC(=O)COCCOCCNC(=O)COCCOCCNC(=O)CC[C@H](NC(=O)CCCCCCCCCCCCCCCCC(=O)O)C(=O)O)NC(=O)[C@H](CCC(=O)O)NC(=O)[C@@H]1CCCN1C(=O)[C@H](C)NC(=O)CC(C)C)C(=O)N[C@@H](CCC(N)=O)C(=O)N[C@@H](CCC(N)=O)C(=O)N[C@@H](Cc1ccc(O)cc1)C(=O)N[C@@H](Cc1ccc(O)cc1)C(=O)N[C@H](C(=O)N[C@@H](CO)C(=O)N[C@@H](CC(C)C)C(=O)N[C@@H](CCCNC(=N)N)C(=O)N[C@@H](Cc1c[nH]cn1)C(=O)N[C@@H](Cc1ccc(O)cc1)C(=O)N[C@@H](Cc1ccc(O)cc1)C(=O)N[C@@H](CC(N)=O)C(=O)N[C@@H](Cc1c[nH]c2ccccc12)C(=O)N[C@@H](CC(C)C)C(=O)N[C@H](C(=O)N[C@@H](CCCNC(=N)N)C(=O)N[C@@H](CCC(N)=O)C(=O)N[C@@H](CCCNC(=N)N)C(=O)N[C@@H](Cc1ccc(O)cc1)C(N)=O)[C@@H](C)O)C(C)C
B2: Compound 41 (peptide)
peptide: Isovaleryl-APEK([AEEA-AEEA-γGlu-C18 diacid])PEEEATPEELQRYYVSLRHYYNWLTRQRY-NH2
SMILES: CC(C)CC(=O)N[C@@H](C)C(=O)N1CCC[C@H]1C(=O)N[C@@H](CCC(=O)O)C(=O)N[C@@H](CCCCNC(=O)COCCOCCNC(=O)COCCOCCNC(=O)CC[C@H](NC(=O)CCCCCCCCCCCCCCCCC(=O)O)C(=O)O)C(=O)N1CCC[C@H]1C(=O)N[C@@H](CCC(=O)O)C(=O)N[C@@H](CCC(=O)O)C(=O)N[C@@H](CCC(=O)O)C(=O)N[C@@H](C)C(=O)N[C@H](C(=O)N1CCC[C@H]1C(=O)N[C@@H](CCC(=O)O)C(=O)N[C@@H](CCC(=O)O)C(=O)N[C@@H](CC(C)C)C(=O)N[C@@H](CCC(N)=O)C(=O)N[C@@H](CCCNC(=N)N)C(=O)N[C@@H](Cc1ccc(O)cc1)C(=O)N[C@@H](Cc1ccc(O)cc1)C(=O)N[C@H](C(=O)N[C@@H](CO)C(=O)N[C@@H](CC(C)C)C(=O)N[C@@H](CCCNC(=N)N)C(=O)N[C@@H](Cc1c[nH]cn1)C(=O)N[C@@H](Cc1ccc(O)cc1)C(=O)N[C@@H](Cc1ccc(O)cc1)C(=O)N[C@@H](CC(N)=O)C(=O)N[C@@H](Cc1c[nH]c2ccccc12)C(=O)N[C@@H](CC(C)C)C(=O)N[C@H](C(=O)N[C@@H](CCCNC(=N)N)C(=O)N[C@@H](CCC(N)=O)C(=O)N[C@@H](CCCNC(=N)N)C(=O)N[C@@H](Cc1ccc(O)cc1)C(N)=O)[C@@H](C)O)C(C)C)[C@@H](C)O
B3: Compound 46 (peptide)
peptide: Isovaleryl-APEK([AEEA-AEEA-γGlu-C18 diacid])PEEEASPEELQRYYVSLRHYYNWLTRQRY-NH2
SMILES: CC(C)CC(=O)N[C@@H](C)C(=O)N1CCC[C@H]1C(=O)N[C@@H](CCC(=O)O)C(=O)N[C@@H](CCCCNC(=O)COCCOCCNC(=O)COCCOCCNC(=O)CC[C@H](NC(=O)CCCCCCCCCCCCCCCCC(=O)O)C(=O)O)C(=O)N1CCC[C@H]1C(=O)N[C@@H](CCC(=O)O)C(=O)N[C@@H](CCC(=O)O)C(=O)N[C@@H](CCC(=O)O)C(=O)N[C@@H](C)C(=O)N[C@@H](CO)C(=O)N1CCC[C@H]1C(=O)N[C@@H](CCC(=O)O)C(=O)N[C@@H](CCC(=O)O)C(=O)N[C@@H](CC(C)C)C(=O)N[C@@H](CCC(N)=O)C(=O)N[C@@H](CCCNC(=N)N)C(=O)N[C@@H](Cc1ccc(O)cc1)C(=O)N[C@@H](Cc1ccc(O)cc1)C(=O)N[C@H](C(=O)N[C@@H](CO)C(=O)N[C@@H](CC(C)C)C(=O)N[C@@H](CCCNC(=N)N)C(=O)N[C@@H](Cc1c[nH]cn1)C(=O)N[C@@H](Cc1ccc(O)cc1)C(=O)N[C@@H](Cc1ccc(O)cc1)C(=O)N[C@@H](CC(N)=O)C(=O)N[C@@H](Cc1c[nH]c2ccccc12)C(=O)N[C@@H](CC(C)C)C(=O)N[C@H](C(=O)N[C@@H](CCCNC(=N)N)C(=O)N[C@@H](CCC(N)=O)C(=O)N[C@@H](CCCNC(=N)N)C(=O)N[C@@H](Cc1ccc(O)cc1)C(N)=O)[C@@H](C)O)C(C)C
B4: Compound 18 (peptide)
peptide: Isovaleryl-APEK([AEEA-AEEA-γGlu-C18 diacid])PEEDAEPEELQQYYVSLRHYYNWLTRQRY-NH2
SMILES: CC(C)CC(=O)N[C@@H](C)C(=O)N1CCC[C@H]1C(=O)N[C@@H](CCC(=O)O)C(=O)N[C@@H](CCCCNC(=O)COCCOCCNC(=O)COCCOCCNC(=O)CC[C@H](NC(=O)CCCCCCCCCCCCCCCCC(=O)O)C(=O)O)C(=O)N1CCC[C@H]1C(=O)N[C@@H](CCC(=O)O)C(=O)N[C@@H](CCC(=O)O)C(=O)N[C@@H](CC(=O)O)C(=O)N[C@@H](C)C(=O)N[C@@H](CCC(=O)O)C(=O)N1CCC[C@H]1C(=O)N[C@@H](CCC(=O)O)C(=O)N[C@@H](CCC(=O)O)C(=O)N[C@@H](CC(C)C)C(=O)N[C@@H](CCC(N)=O)C(=O)N[C@@H](CCC(N)=O)C(=O)N[C@@H](Cc1ccc(O)cc1)C(=O)N[C@@H](Cc1ccc(O)cc1)C(=O)N[C@H](C(=O)N[C@@H](CO)C(=O)N[C@@H](CC(C)C)C(=O)N[C@@H](CCCNC(=N)N)C(=O)N[C@@H](Cc1c[nH]cn1)C(=O)N[C@@H](Cc1ccc(O)cc1)C(=O)N[C@@H](Cc1ccc(O)cc1)C(=O)N[C@@H](CC(N)=O)C(=O)N[C@@H](Cc1c[nH]c2ccccc12)C(=O)N[C@@H](CC(C)C)C(=O)N[C@H](C(=O)N[C@@H](CCCNC(=N)N)C(=O)N[C@@H](CCC(N)=O)C(=O)N[C@@H](CCCNC(=N)N)C(=O)N[C@@H](Cc1ccc(O)cc1)C(N)=O)[C@@H](C)O)C(C)C

What was measured:
[1] = target: T1, human neuropeptide Y2 receptor; experiment: cell-based or functional assay
human NPY1 receptor = target: T2, human NPY1 receptor; experiment: cell-based or functional assay
human NPY4 receptor = human NPY4 receptor (human, UniProt P50391 1-375); experiment: cell-based or functional assay
human NPY5 receptor = target: T3, human NPY5 receptor; experiment: cell-based or functional assay
[2] = target: T1, human neuropeptide Y2 receptor; experiment: radioligand competition (125I-PYY(1-36)), hNPY2R membranes
Outline: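 Commercial human Y2 receptor membranes (0.5 μg protein/well) were incubated with peptide for 2 h at room temperature in 50 mM HEPES, 5 mM MgCl₂, 1 mM CaCl₂, pH 7.4, with 0.2% ovalbumin. Bound radioligand was separated on PEI-soaked GF/C filters and counted by scintillation, and IC₅₀ came from nonlinear sigmoidal regression.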

human NPY4 receptor, sequence (P50391 whole entry): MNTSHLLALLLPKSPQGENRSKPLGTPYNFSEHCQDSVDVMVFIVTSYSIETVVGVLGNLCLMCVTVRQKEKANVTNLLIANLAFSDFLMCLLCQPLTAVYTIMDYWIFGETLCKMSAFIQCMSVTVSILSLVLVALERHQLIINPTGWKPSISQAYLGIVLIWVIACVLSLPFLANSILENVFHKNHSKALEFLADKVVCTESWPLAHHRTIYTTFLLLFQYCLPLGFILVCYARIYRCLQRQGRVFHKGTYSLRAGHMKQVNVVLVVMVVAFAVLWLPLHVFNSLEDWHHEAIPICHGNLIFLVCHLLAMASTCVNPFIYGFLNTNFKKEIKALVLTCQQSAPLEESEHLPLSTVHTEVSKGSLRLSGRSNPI

EC50 (HTRF cAMP Gi assay) [1] [nM] | EC50 (HTRF cAMP Gi assay) (human NPY1 receptor) [nM] | EC50 (HTRF cAMP Gi assay) (human NPY4 receptor) [nM] | EC50 (HTRF cAMP Gi assay) (human NPY5 receptor) [nM] | Ki [2] [nM] | Binder
0.334 | > 5000 | > 5000 | > 5000 | 0.74 | B1
0.159 | > 5000 | > 5000 | > 5000 | 3.22 | B2
0.152 | > 5000 | > 5000 | > 5000 | 3.3 | B3
0.167 | > 5000 | > 5000 | > 5000 | 3.71 | B4
